According to patent CN115010810A (NANJING SANHOME PHARMACEUTICAL CO LTD, dated 2022):
One block for each binder: values may come before it.

How the values were obtained:
[1] = molecular target: T1, 人CTLA-4-His蛋白 (human CTLA-4 extracellular domain fused to His tag) (human, UniProt P16410 36-161); test: ELISA, human CTLA-4-His coated
T1 construct: also called hCTLA-4-His
T1 sequence: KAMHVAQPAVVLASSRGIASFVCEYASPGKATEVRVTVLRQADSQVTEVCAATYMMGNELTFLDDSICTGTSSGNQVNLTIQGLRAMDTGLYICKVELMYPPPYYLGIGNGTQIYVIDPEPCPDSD

[2] = molecular target: 人PD-1-His蛋白 (自产; human PD-1 extracellular domain with His tag) (human, UniProt Q15116 25-170); test: ELISA, human PD-1-His coated
Sequence of 人PD-1-His蛋白 (自产; human PD-1 extracellular domain with His tag) (Q15116 25-170 limits assumed): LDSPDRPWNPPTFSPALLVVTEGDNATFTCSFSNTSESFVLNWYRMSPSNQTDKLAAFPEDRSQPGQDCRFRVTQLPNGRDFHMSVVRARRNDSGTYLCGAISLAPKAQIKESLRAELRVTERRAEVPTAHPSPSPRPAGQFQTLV

[3] = molecular target: T2, 食蟹猴PD-1-His (SB, Cat.No.90311-C08H) (cynomolgus monkey); test: ELISA, cynomolgus PD-1-His coated
T2 construct: Purchased protein; also called cynomolgus PD-1-His

[4] = molecular target: T3, PD-1 on the surface of hPD-1-CHO-K1 cells (human, UniProt Q15116 25-288); test: FACS on hPD-1-CHO-K1 cells
T3 construct: also called 细胞表面PD-1; CHO-K1-PD-1
T3 sequence (Q15116 25-288 limits assumed): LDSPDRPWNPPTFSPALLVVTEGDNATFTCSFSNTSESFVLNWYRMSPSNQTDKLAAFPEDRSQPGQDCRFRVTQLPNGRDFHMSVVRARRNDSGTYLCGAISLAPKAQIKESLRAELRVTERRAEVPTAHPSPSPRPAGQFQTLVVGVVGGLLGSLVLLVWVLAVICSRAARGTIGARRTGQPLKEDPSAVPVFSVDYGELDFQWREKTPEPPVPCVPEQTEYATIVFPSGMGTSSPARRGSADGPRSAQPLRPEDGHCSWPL

EC50 [1]: 0.01 nM
B1: HuC92-11 (antibody, V domains shown)
VH: QVQLVESGGGVVQPGRSLRLSCAASGFTFSNYAMSWVRQAPGKGLEWVAEISYSGTYSYHSDTVTGRFTISRDNSKNTLYLQMSSLRAEDTAVYYCTRRDYDNEMDYWGQGTLVTVSS
VL: DIQMTQSPSSLSASVGDRVTITCRTSQVITNYLNWYQQKPGKAPKLLIYYTSRLHSGVPSRFSGSGSGTDYTLTISSLQPEDFATYYCQQFGKRPPTFGGGTKVEIK
notes: also called SHS010-HuC92-11; 人源化抗CTLA-4抗体HuC92-11

EC50 [2]: 0.18 nM
EC50 [3]: 0.088 nM
EC50 [4]: 0.11 nM
B2: SHS006-HuP01-22 (antibody, V domains shown)
VH: QVQLVQSGAEVKKPGASVKVSCKASGYTFTWYHMSWVRQAPGQGLEYMGYINTRSGDTYYNEKFKGRVTMTTDTSTSTAYMELRSLRSDDTAVYYCARSGYGGSDYWGQGTLVTVSS
VL: DIVMTQSPDSLAVSLGERATINCKSSQNLLYSENKKNSLAWYQQKPGQPPKLLISWASTREFGVPDRFSGSGSGTDFTLTISSLQAEDVAVYYCEQYYDILPTFGGGTKVEIK
notes: also called SHS006-P01-22; 人源化抗PD-1抗体SHS006-HuP01-22
